The text below walks through data of US20020055130A1, “Method and product for regulating apoptosis” (National Jewish Center for Immunology and Respiratory …, priority 1997, published 2002).

The test concerns the target JNK kinase/SEK-1 (endogenous, Swiss 3T3 cells) (UniProt P47809). Briefly: cell-based or functional assay.

JNK kinase/SEK-1 (endogenous, Swiss 3T3 cells), sequence (P47809 2-397 limits assumed): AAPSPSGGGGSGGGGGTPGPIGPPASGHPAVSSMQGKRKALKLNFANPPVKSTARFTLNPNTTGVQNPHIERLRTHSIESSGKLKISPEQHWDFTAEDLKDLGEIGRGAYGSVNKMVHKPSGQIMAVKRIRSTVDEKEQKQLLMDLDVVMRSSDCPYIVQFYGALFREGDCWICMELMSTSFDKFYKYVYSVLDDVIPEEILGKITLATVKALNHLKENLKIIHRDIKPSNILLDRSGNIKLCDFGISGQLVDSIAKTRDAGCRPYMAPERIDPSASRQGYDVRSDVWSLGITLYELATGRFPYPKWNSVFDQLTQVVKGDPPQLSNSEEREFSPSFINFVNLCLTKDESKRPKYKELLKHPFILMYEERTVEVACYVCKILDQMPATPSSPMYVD

“competitive inhibitory JNK/SAPK mutant JNK/SAPK(APF)” registered an inhibition of Gal4/Jun activation in response to MEKKCOOH (luciferase reporter, transient transfection) of 65%.
